Several values for one entry are separate records, joined by “and”; a condition that tells them apart may be missing. Equal entries are not always repeated.
Tests used:
[1] = system: laser-induced choroidal neovascularization rat model; experiment: Laser-induced choroidal neovascularization rat model: CNV area in choroidal flat mount (FITC-dextran); type: in vivo
Description: The groups were set as in Table 8 below. Laser irradiation was performed on the right eye in 10 animals in each group. EYLEA (registered trademark) was administered intravitreally into the right eye of individuals in Group 2 immediately after laser irradiation. For the individuals of Groups 1, 3, and 4, eyedrop administration of the administration substances of each group was performed four times a day from the day of laser irradiation to the day before eyeball enucleation.
Animals to be laser-irradiated were subjected to pupil dilation with Mydorin (registered trademark) P ophthalmic solution, and subjected to general anesthesia by intramuscular injection of a mixed solution of ketamine hydrochloride/xylazine hydrochloride (4:1, v/v) (1 mL/kg) into the thigh muscle. Then, fundus of the right eye was then observed using a slit lamp (SL-130, Carl Zeiss Meditec AG), and laser irradiation was performed at six locations using a green laser photocoagulation device (GYC-500, Nidek Co., Ltd.), avoiding thick capillaries of the retina. The laser conditions were a wavelength of 532 nm (green), a spot size of 50 μm, an irradiation time of 0.1 sec, and a laser irradiation intensity of 300 mW. Except for the individuals to be administered EYLEA (registered trademark), sodium hyaluronate (Hyalein (registered trademark) ophthalmic solution 0.3%, Santen Pharmaceutical Co., Ltd.) as an eye drop for treatment of corneal and conjunctival epithelial disorders was instilled into both eyes after laser irradiation.
Levofloxacin hydrate (CRAVIT (registered trademark) 1.5% ophthalmic solution, Santen Pharmaceutical Co., Ltd.) as a broad-spectrum antibacterial eye drop and oxybuprocaine hydrochloride (Benoxil (registered trademark) 0.4% ophthalmic solution, Santen Pharmaceutical Co., Ltd.) as an ophthalmic topical anesthetic were once instilled into the right eye of rats in Group 2 (EYLEA (registered trademark) administration group) after end of laser irradiation, and then EYLEA (registered trademark) was intravitreally administered at a dose of 200 μg/5 μL/eye using a 33 G two-stage injection needle and a microsyringe (Ito Manufacturing Co., Ltd.). The microsyringe was washed with D-PBS before administration. Hyalein (registered trademark) ophthalmic solution 0.3% was instilled into both eyes after intravitreal administration.
Eyedrop administration of the test substance and the negative control administration solution was performed in a volume of 5 μL/eye using a micropipette (Eppendorf Research Plus V, Eppendorf) at the administration period and the number of times determined for each group (see Group constitution table of Item (2)). At that time, since a test substance solution adheres to an outer side of the tip, care was taken so that the adhering test substance solution was wiped off with a Kimwipe once each time of eyedrop administration, and an excessive amount of the test substance solution was not instilled. In addition, although the tip of the pipette tip was sharp, care was taken not to damage the eyeball surface. Immediately before administration, the administration solution was lightly (about several seconds) centrifuged using a small microcentrifuge Wonder Spin, and the supernatant was used for administration.
Fourteen days after laser irradiation (Day 14), under general anesthesia by intramuscular femoral administration (1 mL/kg) of a ketamine hydrochloride/xylazine hydrochloride (4:1, v/v) mixed solution, a 4% FITC-dextran solution was administered to the tail vein at a dose of 40 mg/l mL/animal.
After 1 minute from the tail vein administration of the 4% FITC-dextran solution, rats were euthanized by excessive anesthesia by administration of 129.6 mg/mL sodium pentobarbital solution and the right eye ball was enucleated. The enucleated eyeball was fixed in a 4% paraformaldehyde phosphate buffer (FUJIFILM Wako Pure Chemical Corporation, hereinafter referred to as 4% PFA) for 12 to 30 hours at normal temperature. […]

[2] = Body weight measurement during the CNV rat test; type: in vivo; conditions: for Body Weight (Average): Group 2, IVT inj. 200 μg/5 μL/eye single dose; for Weight (g) (Individual): Group 2 individual animals, IVT 200 μg/5 μL/eye
Description: The appearance, behavior, and state of excrement or the like were observed every day.
The body weight was measured on the animal arrival date, the preliminary housing end date (grouping date), the eyedrop administration start date, the laser irradiation date (Day 0), and the eyeball enucleation date (Day 14).

Substance: Aflibercept [EYLEA]
- Area of CNV Lesion, Mean ([1]; Group 2, IVT inj. 200 μg/5 μL/eye single dose after irradiation, 14 days after laser, N=10): 421359.3 pixel
- CNV area compared with Group 1 (saline), in words ([1]; Group 2, intravitreal 200 μg/5 μL/eye, Student's t-test): CNV area was significantly reduced
- Individual Value of CNV Area in Each Animal ([1]; Group 2 individual animals, IVT 200 μg/5 μL/eye, 14 days after laser): 396255.8 pixel and 417758.8 pixel and 460248.8 pixel and 470883.0 pixel and 474112.7 pixel and 444455.3 pixel and 440849.3 pixel and 374017.3 pixel and 402387.0 pixel and 332625.3 pixel
- Body Weight (Average) ([2]; Day 0 (Laser injection)): 155.10 g
- Body Weight (Average) ([2]; Day 14 (Enucleation)): 200.52 g
- Body Weight (Average) ([2]; Day −3 or Day −2 (Grouping)): 141.91 g
- Weight (g) (Individual) ([2]; Enucleation (Day 14)): 191.41 g and 189.23 g and 203.15 g and 192.58 g and 215.19 g and 210.30 g and 206.10 g and 205.20 g and 197.20 g and 194.87 g
- Weight (g) (Individual) ([2]; Grouping (Day −3 or −2)): 132.69 g and 135.94 g and 139.54 g and 143.39 g and 145.96 g and 144.35 g and 147.21 g and 151.85 g and 140.51 g and 137.64 g
- Weight (g) (Individual) ([2]; Laser injection (Day 0)): 140.59 g and 146.82 g and 151.42 g and 154.62 g and 160.15 g and 162.32 g and 160.99 g and 169.71 g and 155.47 g and 148.87 g

Reference: patent US20260091082A1, “CYCLIC PEPTIDE DERIVATIVE COMPOSITION FOR TREATING OR PREVENTING EYE DISEASE” (DKS Co. Ltd., priority 2022, published 2026)
